Here are results for 150 variants from publication PMC11480844 (2024).

B1: H2-Kb / Ed45 (parent complex)
chain 1: GEQVEQRPPHLSVREGDSAVIICTYTDPNSYYFFWYKQEPGAGLQLLMKVFSSTEINEGQGFTVLLNKKDKQLSLNLTAAHPGDSAVYFCAVSGTNAYKVIFGKGTHLHVLP
chain 2: EAAVTQSPRSKVAVTGGKVTLSCHQTNNHDYMYWYRQDTGHGLRLIHYSYVADSTEKGDIPDGYKASRPSQENFSLILELASLSQTAVYFCASARGFQDTQYFGPGTRLLVL
chain 3: not shown
chain 4: IQKTPQIQVYSRHPPENGKPNILNCYVTQFHPPHIEIQMLKNGKKIPKVEMSDMSFSKDWSFYILAHTEFTPTETDTYACRVKHDSMAEPKTVYWDRDM
chain 5: SIINFEKL
B2: H2-Kb / Ed5 (parent complex)
chain 1: GDSVTQTEGPVTVSESESLIINCTYSATSIAYPNLFWYVRYPGEGLQLLLKVITAGQKGSSRGFEATYNKETTSFHLQKASVQESDSAVYYCALGSYNQGKLIFGQGTKLSIKP
chain 2: DTTVKQNPRYKLARVGKPVNLICSQTMNHDTMYWYQKKPNQAPKLLLFYYDKILNREADTFEKFQSSRPNNSFCSLYIGSAGLEYSAMYLCASSRRLGASQNTLYFGAGTRLSVL
chain 3: not shown
chain 4: B1 chain 4
chain 5: SIINFEKL
Further: test concentration or dose not given here.

The variants in one experiment derive from B1. As to the kind of experiment: % of reporter cells activated (NFAT-GFP), raw.
As to chain 5 N4L, the ratio to parent was found to be 1.34.
As for chain 5 N4D, the ratio to parent was determined as 0.241.
Still for that read-out and setting: for chain 5 N4S the value was 0.0823; for chain 5 N4E, 1.11.
On to chain 5 N4C, for which the ratio to parent was 0.183.
On the same count and under the same terms, then chain 5 N4F, with 0.261; and chain 5 N4V, with 0.0865; and chain 5 N4Q, with 0.0624.
In the case of chain 5 N4P, the ratio to parent was determined as 0.0883.
On the same count and under the same terms, then chain 5 N4I, with 1.11.
On the same count and under the same terms, then chain 5 N4Y, with 0.0695; and chain 5 N4G, with 1.18.
Take chain 5 S1C: the ratio to parent is 0.234.
On the same count and under the same terms, then chain 5 S1H, with 0.638.
As to chain 5 S1L, the ratio to parent came to 0.0583.
For the variant chain 5 S1D, the ratio to parent came to 0.424.
In the case of chain 5 S1W, the ratio to parent came to 0.347.
The same measure, in the same setting: for chain 5 S1P the value was 0.0861; for chain 5 S1Y, 0.775; for chain 5 S1K, 0.191.
Regarding chain 5 S1F, the ratio to parent was 0.0609.
Still for that read-out and setting: for chain 5 S1M the value was 0.0805.
Regarding chain 5 S1V, the ratio to parent came to 0.0654.
chain 5 S1E: the ratio to parent amounted to 0.177.
Still for that read-out and setting: for chain 5 L8C the value was 1.72; for chain 5 L8V, 1.43; for chain 5 L8R, 1.77.
Same read-out and setting: then chain 5 L8H, with 1.66; and chain 5 L8F, with 1.79; and chain 5 L8T, with 1.72.
The same measure, in the same setting: then chain 5 L8Q, with 1.79.
For chain 5 L8N, the ratio to parent turned out to be 1.6.
Same read-out and setting: for chain 5 I3E the value was 2.17; for chain 5 I3T, 1.86; for chain 5 I3F, 0.726.
The same measure, in the same setting: for chain 5 I3D the value was 2.15.
On to chain 5 I3G, for which the ratio to parent is 1.87.
As for chain 5 I3W, the ratio to parent came to 1.57.
For the variant chain 5 I3C, the ratio to parent was 1.81.
Still for that read-out and setting: for chain 5 I3L the value was 1.61.
Same read-out and setting: for chain 5 I3Q the value was 2.26.
On to chain 5 I3Y, for which the ratio to parent turned out to be 0.537.
The same measure, in the same setting: then chain 5 I3P, with 2.34.
On the same count and under the same terms, for chain 5 I2S the value was 1.32; for chain 5 I2N, 1.33.
On the same count and under the same terms, for chain 5 I2Y the value was 1.75; for chain 5 I2Q, 1.91.
For the variant chain 5 I2G, the ratio to parent is 1.62.
On the same count and under the same terms, then chain 5 I2E, with 1.97; and chain 5 I2W, with 1.68.
As to chain 5 K7V, the ratio to parent was found to be 0.895.
In the case of chain 5 K7D, the ratio to parent was 0.247.
Still for that read-out and setting: for chain 5 K7S the value was 1.34; for chain 5 K7Y, 1.03; for chain 5 K7G, 0.872.
On the same count and under the same terms, then chain 5 K7T, with 0.253; and chain 5 K7P, with 0.891.
The same measure, in the same setting: for chain 5 K7H the value was 1.25; for chain 5 K7I, 0.349; for chain 5 K7R, 2.06.
On to chain 5 K7M, for which the ratio to parent was 1.21.
For chain 5 E6F, the ratio to parent worked out at 0.188.
Still for that read-out and setting: for chain 5 E6W the value was 0.317; for chain 5 E6R, 0.0752.
Consider chain 5 E6I, for which the ratio to parent amounted to 0.155.
Take chain 5 E6T: the ratio to parent came out at 0.91.
Same read-out and setting: for chain 5 E6D the value was 0.542.
The same measure, in the same setting: then chain 5 E6G, with 0.715; and chain 5 E6Q, with 0.738; and chain 5 E6N, with 1.11.
chain 5 F5P: the ratio to parent came to 1.
As for chain 5 F5W, the ratio to parent was 2.33.
The same measure, in the same setting: then chain 5 F5Q, with 0.947.
Take chain 5 F5M: the ratio to parent stood at 0.797.
Same read-out and setting: then chain 5 F5H, with 1.28; and chain 5 F5L, with 0.719; and chain 5 F5Y, with 1.63.
Still for that read-out and setting: for chain 5 F5G the value was 0.495; for chain 5 F5T, 0.936; for chain 5 F5K, 1.19.
As for chain 5 F5D, the ratio to parent was 1.54.

Variants of B2 are the subject of a further experiment. As to the kind of experiment: % of reporter cells activated (NFAT-GFP), raw.
As for chain 5 I2D, the ratio to parent was 0.943.
Consider chain 5 I2W, for which the ratio to parent was 0.66.
The same measure, in the same setting: then chain 5 I2R, with 0.641; and chain 5 I2F, with 0.851; and chain 5 I2H, with 0.763.
Still for that read-out and setting: for chain 5 I2T the value was 1; for chain 5 I2V, 1.01; for chain 5 I3H, 0.121.
With chain 5 I3A, the ratio to parent was found to be 0.32.
The same measure, in the same setting: then chain 5 I3G, with 0.28; and chain 5 E6C, with 0.491.
Take chain 5 E6V: the ratio to parent turned out to be 0.618.
Still for that read-out and setting: for chain 5 E6K the value was 0.901; for chain 5 E6A, 0.606; for chain 5 E6P, 0.186.
On the same count and under the same terms, then chain 5 E6I, with 0.533; and chain 5 E6Q, with 0.619; and chain 5 E6S, with 0.585.
chain 5 K7E: the ratio to parent came out at 0.632.
As for chain 5 K7Y, the ratio to parent was determined as 0.717.
For the variant chain 5 K7M, the ratio to parent is 0.725.
The same measure, in the same setting: then chain 5 K7N, with 0.714; and chain 5 K7D, with 0.593.
Take chain 5 K7F: the ratio to parent is 0.657.
Turning to chain 5 K7A, the ratio to parent turned out to be 0.645.
The same measure, in the same setting: then chain 5 K7H, with 0.798.
With chain 5 N4S, the ratio to parent came out at 0.0018.
With chain 5 N4R, the ratio to parent is 0.374.
Turning to chain 5 N4K, the ratio to parent turned out to be 0.0781.
On the same count and under the same terms, for chain 5 N4I the value was 0.274; for chain 5 N4A, 0.002.
Turning to chain 5 N4C, the ratio to parent came to 0.164.
Still for that read-out and setting: then chain 5 N4E, with 0.00233; and chain 5 N4D, with 0.756.
Same read-out and setting: for chain 5 N4L the value was 0.182.
With chain 5 N4T, the ratio to parent was 0.04.
As for chain 5 N4Y, the ratio to parent stood at 0.0536.
On the same count and under the same terms, then chain 5 N4P, with 0.00308.
Regarding chain 5 N4G, the ratio to parent was determined as 0.00398.
With chain 5 S1T, the ratio to parent amounted to 0.944.
On the same count and under the same terms, then chain 5 S1M, with 0.02; and chain 5 S1P, with 0.0946.
Take chain 5 S1D: the ratio to parent came out at 0.629.
For chain 5 S1C, the ratio to parent came out at 0.161.
Consider chain 5 S1W, for which the ratio to parent worked out at 0.374.
For chain 5 S1Q, the ratio to parent was 0.556.
In the case of chain 5 S1E, the ratio to parent was 0.981.
The same measure, in the same setting: then chain 5 S1R, with 0.293; and chain 5 S1L, with 0.0134; and chain 5 F5M, with 0.938.
As for chain 5 F5V, the ratio to parent turned out to be 0.777.
The same measure, in the same setting: then chain 5 F5A, with 1.01; and chain 5 F5W, with 0.695.
On the same count and under the same terms, then chain 5 F5S, with 0.735; and chain 5 F5E, with 0.848.
For chain 5 F5K, the ratio to parent stood at 0.905.
Same read-out and setting: for chain 5 F5I the value was 0.886.
The same measure, in the same setting: then chain 5 F5Y, with 0.892.
With chain 5 F5H, the ratio to parent worked out at 0.822.
Still for that read-out and setting: then chain 5 F5R, with 0.764.
Consider chain 5 L8H, for which the ratio to parent worked out at 0.958.
In the case of chain 5 L8Q, the ratio to parent came to 0.783.
The same measure, in the same setting: then chain 5 L8R, with 0.904.
Turning to chain 5 L8M, the ratio to parent was determined as 0.752.
Same read-out and setting: then chain 5 L8S, with 0.641; and chain 5 L8G, with 0.901.
Consider chain 5 L8K, for which the ratio to parent is 0.793.
The same measure, in the same setting: for chain 5 L8E the value was 0.629.
Still for that read-out and setting: for chain 5 L8W the value was 0.585.
